Tests used:
[1] = molecular target: T1, cynomologous monkey PD-1 (cynomologous monkey, UniProt B0LAJ3 25-170); experiment: method not stated in that sentence (BLI in the next one), 25° C
T1 construct: also called cynomolgus PD-1

[2] = molecular target: T2, PD-1; experiment: bio-layer interferometry (BLI)
T2 construct: the paragraph before it speaks of human and cynomolgus PD-1; also called programmed cell death protein 1; CD279

[3] = molecular target: T3, human PD-1 (human, UniProt Q15116 25-167, limits assumed); experiment: method not stated in that sentence (BLI in the next one), 25° C; 25° C; human PD-1
T3 construct: also called programmed cell death protein 1; CD279
T3 sequence (Q15116 25-167 limits assumed): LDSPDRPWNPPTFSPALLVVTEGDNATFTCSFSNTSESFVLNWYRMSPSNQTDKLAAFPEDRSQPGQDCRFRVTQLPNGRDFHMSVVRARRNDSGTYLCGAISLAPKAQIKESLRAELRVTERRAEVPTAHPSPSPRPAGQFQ

T1 sequence (B0LAJ3 entry or part of it limits assumed): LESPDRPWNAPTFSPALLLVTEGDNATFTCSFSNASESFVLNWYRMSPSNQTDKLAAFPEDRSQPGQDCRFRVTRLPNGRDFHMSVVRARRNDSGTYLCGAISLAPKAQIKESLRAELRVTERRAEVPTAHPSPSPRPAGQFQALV
T2 sequence (Q15116 25-170): as the sequence (B0LAJ3 entry or part of it limits assumed) above, with E2D, A10P, L19V, A35T, R75Q, A144T counted along it

Kd [1]: ≤ 0.01 nM | Kd [2]: < 1 pM | Kd [3]: ≤ 0.01 nM
B1: AM0001 (antibody, human IgG4 S228P, lambda, V domains shown)
VH: EVQLLESGGGLVQPGGSLRLSCPASGFTFSSYAMSWVRQAPGKGLGWVSDISGGGGTTYYADSVKGRFTISRDNSKNTLYLQMNSLRGEDTAVYYCAKSGTVVTDFDYWGQGTLVTVSS
VL: SYVLTQPPSVSVAPGQTARVTCGGNSIGSYSVHWYQQKPGQAPVLVVYDDSDRPSGIPERFSGSNSGNTAALTISRVEAGDEADYYCQVWDTSSYWVFGGGTKLTVLG
notes: Monoclonal antibody with a lambda 2 light chain and a hinge-stabilized IgG4 (S228P) heavy chain; also called PD1-antagonist antibody AM0001; VH-09/VL-09

— patent publication US20200353050A1 (Eli Lilly, published 2020)
